How the values were obtained:
[1] = biological target: ERK5 kinase domain, ERK5-(1–431) (Homo sapiens, UniProt Q13164); assay: Fluorescence polarization; details: FP-based binding affinity measurements
[2] = biological target: ERK2 (Homo sapiens, UniProt P28482); assay: FP-based binding affinity measurements with ERK2, direct titration
Sequence of ERK2 (P28482 whole entry): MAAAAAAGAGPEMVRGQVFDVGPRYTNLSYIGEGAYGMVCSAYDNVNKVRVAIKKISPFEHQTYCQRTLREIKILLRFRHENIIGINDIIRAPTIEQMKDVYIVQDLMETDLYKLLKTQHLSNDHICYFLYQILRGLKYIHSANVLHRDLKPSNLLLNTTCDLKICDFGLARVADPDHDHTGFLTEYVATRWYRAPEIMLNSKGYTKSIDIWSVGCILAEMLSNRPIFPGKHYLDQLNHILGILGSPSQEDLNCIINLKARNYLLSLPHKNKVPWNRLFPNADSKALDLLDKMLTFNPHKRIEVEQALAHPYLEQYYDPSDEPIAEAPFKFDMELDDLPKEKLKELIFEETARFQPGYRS

Sequence of ERK5 kinase domain, ERK5-(1–431) (Q13164 1-431): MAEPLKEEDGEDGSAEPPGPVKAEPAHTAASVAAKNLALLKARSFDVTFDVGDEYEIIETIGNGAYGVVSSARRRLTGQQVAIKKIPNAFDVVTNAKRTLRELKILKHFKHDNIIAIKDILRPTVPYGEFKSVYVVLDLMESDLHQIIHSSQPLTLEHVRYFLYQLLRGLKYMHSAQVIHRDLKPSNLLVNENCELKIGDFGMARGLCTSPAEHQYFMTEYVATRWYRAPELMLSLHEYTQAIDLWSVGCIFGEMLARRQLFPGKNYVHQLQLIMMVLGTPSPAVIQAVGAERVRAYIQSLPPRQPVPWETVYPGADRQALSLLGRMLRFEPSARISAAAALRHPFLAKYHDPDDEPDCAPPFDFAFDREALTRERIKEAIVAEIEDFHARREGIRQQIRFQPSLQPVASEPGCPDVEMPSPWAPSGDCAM

B1: PB1-D: MKK5 construct (16–130) comprised of the PB1 domain and the linear D-motif (protein, UniProt Q13163 16-130, looked up, fragment)
chain: VLVIRIKIPNSGAVDWTVHSGPQLLFRDVLDVIGQVLPEATTTAFEYEDEDGDRITVRSDEEMKAMLSYYYSTVMEQQVNGQLIEPLQIFPRACKPPGERNIHGLKVNTRAGPSQ
modifications: PB1 domain and D-motif
[1]
  Binding to ERK5 (result in words): submicromolar affinity
[2]
  Binding to ERK2 (result in words): did not bind

Reference: publication PMC3605678 (The Journal of Biological Chemistry, 2013)
